Data published in patent US20260250737A1, “Engineered Luciferases and Luciferin Substrates” (Monod Bio, Inc., priority 2023, published 2026).

Test system: SmLux
Test: Computationally generated LgLux variants expressed in E. coli, tested in lysates with SmLux and substrate 1c
Assay type: biochemical
Conditions: 50 uM substrate 1c; for Fold change upon SmLux peptide addition: 20 uM SmLux; for Baseline Signal (Normalized by expression): before SmLux peptide addition
Method: LgLux sequences were designed computationally, and their activity measured as depicted schematically in FIG. 45.
A library of the computationally generated LgLux variants were expressed in E. coli and tested in lysates. 20 uM of SmLux and 50 uM of substrate 1c was used for the screening.
LgLux_4039 sequence is as set forth in SEQ ID NO:2773. MBIO-5103 through MBIO-5124, MBIO-5261 through MBIO-5295, MBIO-5101, and MBIO-5102 (SEQ ID NO:2815-SEQ ID NO:2873, respectively) are computationally generated LgLux. The sequences and activity of these LgLux are shown below in Table 21.
MBIO-5358 and MBIO-5360 through MBIO-5381 (SEQ ID NO:2774-SEQ ID NO:2796, respectively) are computationally generated LgLux.

B1: 5283 (protein)
chain: MTPEEIRANVERFYAALASGDLETAKALFDPGVTITLWDGTTFTSVEEFRKWFEEQFETSKDALREIVSMEVEGDTVRVLVRLTFVRNGEEKVVDLLQLFKFV
Fold change upon SmLux peptide addition: 1.14 | Baseline Signal (Normalized by expression): 141.4

B2: 5286 (protein)
chain: MTPEERIANVRAFYAALASGDLEAAKALFDPGVTITLWDGTTFTSVEEFRAWFEEQFKTSKDALREIESIEVDGDTVRVLVRLTFVRDGEEKVVDLLQLFKFV
Fold change upon SmLux peptide addition: 33.33 | Baseline Signal (Normalized by expression): 196

B3: 5278 (protein)
chain: MTPEAIRENVEAFYAALASGDWEAAKALFDPGVTITLWDGTTFTSVEEFRAWFEEQFQTSKDALREIVSMRIEGDTVRVLVRLTFTRDGETQVVDLLQLFKFV
Fold change upon SmLux peptide addition: 1.61 | Baseline Signal (Normalized by expression): 121.2

B4: 5268 (protein)
chain: MTPEEIRENVRRFYAALASGDLEAAKSLFDPGVTITLWDGTTFTSVEEFRAWFEEQFQTSKDALREIVSLEVEGDVVRVLVRLTFVRDGEVQEVDLLQLFKFV
Fold change upon SmLux peptide addition: 1.05 | Baseline Signal (Normalized by expression): 133

B5: 5275 (protein)
chain: MTPEEIKENVLNFYAALASGDLEAAKALFDPGVTITLWDGTTFTSVEEFRAWFEKQFKTSKDALREIVSMEVEGDVVRVLVRLTFTRDGKVEEVDLLQLFKFV
Fold change upon SmLux peptide addition: 1.35 | Baseline Signal (Normalized by expression): 122.8

B6: 5261 (protein)
chain: MTPEEIRANVRAFYAALASGDLAAARALFDPGVTITLWDGTTFTSVEEFRAWFEEQFQTSKDALREIESIEVEGDTVRVLVRLTFTRDGVTQEVDLLQLFKFV
Fold change upon SmLux peptide addition: 2.16 | Baseline Signal (Normalized by expression): 176.8

B7: 5276 (protein)
chain: MTDEEIRANVRAFYAALASGDLEAAKALFDPGVTITLWDGTTFTSVEEFRAWFEKQFKTSKDALREIESLEVEGDTVRVLVRLTFVRDGKEQVVDLLQLFKFV
Fold change upon SmLux peptide addition: 6.45 | Baseline Signal (Normalized by expression): 125.6

B8: 5271 (protein)
chain: MTPEEIRENVRNFYAALASGDLEAAKALFDPGVTITLWDGTTFTSVEEFRAWFEEQFKTSKDALREIVSMEIEGDTVRVLVRLTFTRDGVEQVVDLLQLFKFV
Fold change upon SmLux peptide addition: 10.11 | Baseline Signal (Normalized by expression): 145

B9: 5266 (protein)
chain: MTPEEIRANVRAFYAALASGDLAAAKALFDPGVTITLWDGTTFTSVEEFRAWFEEQFQTSKDALREIVSLRVEGDTVRVLVRLTFTRDGKVQEVDLLQLFKFV
Fold change upon SmLux peptide addition: 1.09 | Baseline Signal (Normalized by expression): 129.8

B10: 5262 (protein)
chain: MTPEERIENVRAFYAALASGDWAAARALFDPGVTITLWDGTTFTSVEEFRAWFEKQFKTSKDALREIESIEVEGDTVRVLVRLTFTRDGKEEEVDLLQLFKFV
Fold change upon SmLux peptide addition: 2.29 | Baseline Signal (Normalized by expression): 139.6

B11: 5282 (protein)
chain: MTPEEIIANVRAFYAALASGDLEAAKALFDPGVTITLWDGTTFTSVEEFRAWFEQQFQTSKDALREIVSIEVEGDVVRVLVRLTFVRDGEEQVVDLLQLFKFV
Fold change upon SmLux peptide addition: 1.18 | Baseline Signal (Normalized by expression): 131.8

B12: 5267 (protein)
chain: MTPEEILANVRAFYAALASGDLAAAKALFDPGVTITLWDGTTFTSVEEFRAWFEEQFKTSKDALREIVSAEVEGDTVRVLVRLTFTRDGKVEEVDLLQLFKFV
Fold change upon SmLux peptide addition: 1.42 | Baseline Signal (Normalized by expression): 130.6

B13: 5274 (protein)
chain: MTPEEIRANVRAFYAALASGDWAAAEALFDPGVTITLWDGTTFTSVAEFRAWFEAQFQTSKDALREIVSLEVEGDVVRVLVRLTFVRDGRTEEVDLLQLFKFV
Fold change upon SmLux peptide addition: 1.07 | Baseline Signal (Normalized by expression): 125.2

B14: 5280 (protein)
chain: MTPEEIRANVRAFYAALASGDWEAARALFDPGVTITLWDGTTFTSVEEFRAWFEKQFQTSKDALREIVALEVEGDVVRVLVRLTFVRDGVEQEVDLLQLFKFV
Fold change upon SmLux peptide addition: 1.07 | Baseline Signal (Normalized by expression): 129.2

B15: 5279 (protein)
chain: MTPEEIRENVRAFYAALASGDLAAAKALFDPGVTITLWDGTTFTSVEEFRAWFEEQFQTSKDALREIVSLEIEGDVVRVLVRLTFTRNGETQVVDLLQLFKFV
Fold change upon SmLux peptide addition: 1.12 | Baseline Signal (Normalized by expression): 111.8

B16: 5284 (protein)
chain: MTPEERFANVRAFYEALASGDLEAAKALFDPGVTITLWDGTTFTSVEEFRAWFEEQFQTSKDALREIVDMEVEGDTVRVLVRLTFTRNGETQEVDLLQLFKFV
Fold change upon SmLux peptide addition: 5.16 | Baseline Signal (Normalized by expression): 186.8

B17: 5264 (protein)
chain: MTPEEIRANVEAFYAALASGDWEAARALFDPGVTITLWDGTTFTSVEEFRAWFEEQFKTSKDALREIVDLEVEGDVVRVLVRLTFVRDGKEEVVDLLQLFKFV
Fold change upon SmLux peptide addition: 1.26 | Baseline Signal (Normalized by expression): 127.6

B18: 5281 (protein)
chain: MTPEEIRANVEAFYAALASGDLEAAKSLFDPGVTITLWDGTTFTSVEEFRKWFEEQFKTSKDALREIVSMEIEGDTVRVLVRLTFVRDGKVEEVDLLQLFKFV
Fold change upon SmLux peptide addition: 3.02 | Baseline Signal (Normalized by expression): 125.6

B19: 5269 (protein)
chain: MTPEEIRENVRAFYAALASGDLAAAKALFDPGVTITLWDGTTFTSVEEFRAWFEKQFKTSKDALREIVSLEVEGDTVRVLVRLTFVRDGKEEVVDLLQLFKFV
Fold change upon SmLux peptide addition: 1.1 | Baseline Signal (Normalized by expression): 137.2

B20: 5273 (protein)
chain: MTPEAIRENVRAFYAALASGDWEAAKALFDPGVTITLWDGTTFTSVEEFRAWFEKQFKTSKDALREIVSLEVEGDVVRVLVRLTFVRDGKEEVVDLLQLFKFV
Fold change upon SmLux peptide addition: 1.01 | Baseline Signal (Normalized by expression): 140.4

B21: 5270 (protein)
chain: MTPEAIIANVKAFYAALASGDWAAARALFDPGVTITLWDGTTFTSVEEFRAWFEAQFETSKDALREIVSMEVEGDTVRVLVRLTFVRNGKEEVVDLLQLFKFV
Fold change upon SmLux peptide addition: 1.25 | Baseline Signal (Normalized by expression): 135.2

B22: 5285 (protein)
chain: MTPEEIRANVERFYAALASGDWATAEALFDPGVTITLWDGTTFTSVAEFRAWFEEQFKTSKDALREIVSLEINGDVVRVLVRLTFTRDGKEEVVDLLQLFKFV
Fold change upon SmLux peptide addition: 1.26 | Baseline Signal (Normalized by expression): 188

B23: 5103 (protein)
chain: MTPEQRIANVRAFYAALASGDLEAAKALFDPGVTITLWDGTTFTSLEEFLAWFEKQFDASKDAKREIVDIEVEGDVVRVLVRLTYTKDGKEKVVDLLQLLKFV
Fold change upon SmLux peptide addition: 0.94 | Baseline Signal (Normalized by expression): 193.2

B24: 5104 (protein)
chain: MTPEEIRANVRAFYAALASGDLAAAKALFDPGTTITLWDGTTFTSLEEFLAWFEKQFKASKDAKREIVSLEVEGDTVRVLVRLTYTVDGKEKVVDLLQLLKFV
Fold change upon SmLux peptide addition: 0.97 | Baseline Signal (Normalized by expression): 180.8

B25: 5263 (protein)
chain: MTPEEIRANVLAFYAALASGDLAAAEALFDPGVTITLWDGTTFTSVAEFRAWFEAQFQTSKDALREIVDMRVEGDVVRVLVRLTFVRDGEEQVVDLLQLFKFV
Fold change upon SmLux peptide addition: 1.38 | Baseline Signal (Normalized by expression): 137.4

B26: 5277 (protein)
chain: MTPEEIRANVRAFYAALASGDLEAAKALFDPGVTITLWDGTTFTSVEEFRKWFEEQFKTSKDALREIVEMRIEGDVVRVLVRLTFVRDGKEQVVDLLQLFKFV
Fold change upon SmLux peptide addition: 1.19 | Baseline Signal (Normalized by expression): 120.6

B27: 5265 (protein)
chain: MTPEQIRANVRAFYAALASGDWAAAEALFDPGVTITLWDGTTFTSVAEFRAWFEEQFKTSKDALREIVSMEVEGDTVRVLVRLTFVRDGEEKVVDLLQLFKFV
Fold change upon SmLux peptide addition: 2.8 | Baseline Signal (Normalized by expression): 126.4

B28: 5272 (protein)
chain: MTPEERIANVRAFYAALASGDWAAAEALFDPGVTITLWDGTTFTSVAEFRAWFEQQFQTSKDALREILDIEVEGDVVRVLVRLTFVRDGKEQVVDLLQLFKFV
Fold change upon SmLux peptide addition: 11.86 | Baseline Signal (Normalized by expression): 141.4
